T1: 食蟹猴CTLA-4.ECD-6xHis (cynomolgus monkey) (UniProt G7PL88)
T1 sequence: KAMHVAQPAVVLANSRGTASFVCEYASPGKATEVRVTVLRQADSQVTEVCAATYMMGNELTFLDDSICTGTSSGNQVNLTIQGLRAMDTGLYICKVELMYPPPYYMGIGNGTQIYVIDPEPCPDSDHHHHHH


Columns and labels:
[1] = target: 全长人CTLA-4 on cells (293F stable line) (human) (UniProt P16410); assay: FACS on 293F cells expressing human CTLA-4
[2] = target: 人CTLA-4.ECD-6xHis (human) (UniProt P16410); assay: ELISA; human CTLA-4.ECD-6xHis coated at 1.0 μg/mL
[3] = target: 小鼠CTLA-4.ECD-6xHis (mouse) (UniProt P09793); assay: ELISA; mouse CTLA-4.ECD-6xHis coated at 0.5 μg/mL
[4] = target: T1, 食蟹猴CTLA-4.ECD-6xHis (cynomolgus monkey); assay: ELISA; cynomolgus CTLA-4.ECD-6xHis coated at 0.5 μg/mL
[5] = target: 小鼠CTLA-4.ECD-6xHis (mouse) (UniProt P09793); assay: SPR; antibody captured, mouse CTLA-4.ECD-6xHis as analyte, 1:1 fit
[6] = target: T1, 食蟹猴CTLA-4.ECD-6xHis (cynomolgus monkey); assay: SPR; antibody captured, cynomolgus CTLA-4.ECD-6xHis as analyte, 1:1 fit
[7] = target: 全长人CTLA-4 on cells (293F stable line) (human) (UniProt P16410); assay: FACS affinity (modified Benedict method) on cells expressing human CTLA-4
人CTLA-4.ECD.hFc (human) [8] = target: 人CTLA-4.ECD.hFc (human) (UniProt P16410); assay: competition ELISA; CTLA-4.ECD.hFc coated, competitor CD80-6xHis at 0.25 μg/mL
人CTLA-4.ECD.hFc (human) [9] = target: 人CTLA-4.ECD.hFc (human) (UniProt P16410); assay: competition ELISA; CTLA-4.ECD.hFc coated, competitor CD86-6xHis at 0.25 μg/mL
[10] = target: 人CTLA-4.ECD-6xHis (human) (UniProt P16410); assay: SPR (Biacore T200); antibody captured on anti-human Fc, hCTLA-4.ECD-6xHis as analyte, 1:1 fit
人CTLA-4.ECD.hFc (human) [11] = target: 人CTLA-4.ECD.hFc (human) (UniProt P16410); assay: FACS competition; biotinylated hCTLA-4.ECD.hFc on CD80-expressing CHO cells (competitor CD80)
人CTLA-4.ECD.hFc (human) [12] = target: 人CTLA-4.ECD.hFc (human) (UniProt P16410); assay: FACS competition; biotinylated hCTLA-4.ECD.hFc on CD86-expressing CHO cells (competitor CD86)

Row | EC50 [1] [nM] | EC50 [2] [nM] | EC50 [3] [nM] | EC50 [4] [nM] | Kd [5] [nM] | Kd [6] [nM] | Kd [7] [nM] | IC50 (人CTLA-4.ECD.hFc (human) [8]) [nM] | IC50 (人CTLA-4.ECD.hFc (human) [9]) [nM] | Kd [10] [nM] | IC50 (人CTLA-4.ECD.hFc (human) [11]) [nM] | percent of CTLA-4 binding blocked at the highest concentration (人CTLA-4.ECD.hFc (human) [11]) [%] | IC50 (人CTLA-4.ECD.hFc (human) [12]) [nM] | percent of CTLA-4 binding blocked at the highest concentration (人CTLA-4.ECD.hFc (human) [12]) [%] | Binder
1 | 1.58 | 0.03 | 0.19 | 0.05 | 1.39 | 1.92 | 5.05 | 0.87 | 0.71 | 0.477 | 6.6 | 71 | 5.15 | 73 | W3162-1.146.19-z12-IgGk (antibody, from another filing, V domains shown) VH: QVQLQESGPGLVKPSETLSLTCSVTYHTITSGYDWTWIRKPPGKGMEWIGYISYSGNTNYNPSLKSRVTISRDTSKNQFFLKLSSVTAADTAVYYCASMMVPHYYVMDAWGQGTLVTVSS VL: DIVMTQTPLSLSVTPGQPASISCRSSQSLLNSDGNTYLYWYLQKPGQSPQLLIYLVSKLGSGVPNRFSGSGSGTDFTLKISRVEAEDVGVYYCVQGTHDPWTFGGGTKVEIK
2 | 0.66 | 0.04 |  | 0.05 |  | 0.131 | 0.35 | 0.63 | 0.5 | 0.0968 | 0.07 | 89 | 0.28 | 98 | W3162-1.154.8-z35-IgGk (antibody, from another filing, V domains shown) VH: QVQLVQSGAEVKKPGSSVKVSCKASGYTFTNYFMNWVRQAPGQGLEWMGRVDPEQGRADYAEKFKKRVTITADKSTSTAYMELSSLRSEDTAVYYCARRAMDNYGFAYWGQGTLVTVSS VL: EIVLTQSPDFQSVTPKEKVTITCSANSALSYMYWYQQKPDQSPKLWVHGTSNLASGVPSRFSGSGSGTDFTLTINSLEAEDAATYYCHHWSNTQWTFGGGTKVEIK

Reference: patent CN108948194A
